Earlier results in article PMC7488417.

Molecular target: cJun LZ (Homo sapiens) (UniProt P05412)
Assay: ITC

Sequence of cJun LZ (Homo sapiens) (P05412 277-308): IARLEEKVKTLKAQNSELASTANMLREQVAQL
Sequence of cFos LZ (P01100 162-193): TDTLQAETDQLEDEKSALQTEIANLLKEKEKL

In the case of cFos LZ (from UniProt P01100), the Kd is listed as 26.6 µM.
